Publication PMC12397386, “Structural basis of Fusobacterium nucleatum adhesin Fap2 interaction with receptors on cancer and immune cells” (Nature Communications, 2025)

What was measured:
[1] = target: hTIGIT-ECD-Fc (human TIGIT extracellular domain with C-terminal Fc tag, Acro Biosystems #TIT-H5254) (human) (UniProt Q495A1); assay: SPR; Biacore 3000; hTIGIT-ECD-Fc immobilised on CM5 chip (3220 RU); Fap2-ECD injected at 52.5 to 368 nM; 25 mM HEPES-NaOH pH 7.5, 50 mM NaCl, 0.005% Tween-20; 25 °C; global 1:1 Langmuir fit
TIGIT (Homo sapiens) = TIGIT (Homo sapiens) (UniProt Q495A1); details: cited from earlier work
[2] = target: fibronectin (Homo sapiens) (UniProt P02751); details: cited from earlier work
[3] = target: T1, Fap2 extracellular domain (Fap2-ECD), residues 42-3271, purified after release from the AIDA autotransporter (Fusobacterium nucleatum subsp. …, UniProt A0ABV3Y820 42-3271); assay: SPR; Biacore 3000; hTIGIT-ECD-Fc amine-coupled to a CM5 chip (3220 RU); Fap2-ECD injected at 52.5-368 nM; 25 mM HEPES-NaOH pH 7.5, 50 mM NaCl, 0.005% Tween-20; 25 °C; 1:1 Langmuir global fit; details: both partners purified
T1 construct: Linker GSA before and SAG after the His8 tag; what is left of the TEV site after cleavage follows it; Gene codon-optimised for E. coli; also called Fap2 WT; recombinant Fap2-ECD; not shown: His8, C-terminal, kept

Sequence of fibronectin (Homo sapiens) (P02751 32-2477): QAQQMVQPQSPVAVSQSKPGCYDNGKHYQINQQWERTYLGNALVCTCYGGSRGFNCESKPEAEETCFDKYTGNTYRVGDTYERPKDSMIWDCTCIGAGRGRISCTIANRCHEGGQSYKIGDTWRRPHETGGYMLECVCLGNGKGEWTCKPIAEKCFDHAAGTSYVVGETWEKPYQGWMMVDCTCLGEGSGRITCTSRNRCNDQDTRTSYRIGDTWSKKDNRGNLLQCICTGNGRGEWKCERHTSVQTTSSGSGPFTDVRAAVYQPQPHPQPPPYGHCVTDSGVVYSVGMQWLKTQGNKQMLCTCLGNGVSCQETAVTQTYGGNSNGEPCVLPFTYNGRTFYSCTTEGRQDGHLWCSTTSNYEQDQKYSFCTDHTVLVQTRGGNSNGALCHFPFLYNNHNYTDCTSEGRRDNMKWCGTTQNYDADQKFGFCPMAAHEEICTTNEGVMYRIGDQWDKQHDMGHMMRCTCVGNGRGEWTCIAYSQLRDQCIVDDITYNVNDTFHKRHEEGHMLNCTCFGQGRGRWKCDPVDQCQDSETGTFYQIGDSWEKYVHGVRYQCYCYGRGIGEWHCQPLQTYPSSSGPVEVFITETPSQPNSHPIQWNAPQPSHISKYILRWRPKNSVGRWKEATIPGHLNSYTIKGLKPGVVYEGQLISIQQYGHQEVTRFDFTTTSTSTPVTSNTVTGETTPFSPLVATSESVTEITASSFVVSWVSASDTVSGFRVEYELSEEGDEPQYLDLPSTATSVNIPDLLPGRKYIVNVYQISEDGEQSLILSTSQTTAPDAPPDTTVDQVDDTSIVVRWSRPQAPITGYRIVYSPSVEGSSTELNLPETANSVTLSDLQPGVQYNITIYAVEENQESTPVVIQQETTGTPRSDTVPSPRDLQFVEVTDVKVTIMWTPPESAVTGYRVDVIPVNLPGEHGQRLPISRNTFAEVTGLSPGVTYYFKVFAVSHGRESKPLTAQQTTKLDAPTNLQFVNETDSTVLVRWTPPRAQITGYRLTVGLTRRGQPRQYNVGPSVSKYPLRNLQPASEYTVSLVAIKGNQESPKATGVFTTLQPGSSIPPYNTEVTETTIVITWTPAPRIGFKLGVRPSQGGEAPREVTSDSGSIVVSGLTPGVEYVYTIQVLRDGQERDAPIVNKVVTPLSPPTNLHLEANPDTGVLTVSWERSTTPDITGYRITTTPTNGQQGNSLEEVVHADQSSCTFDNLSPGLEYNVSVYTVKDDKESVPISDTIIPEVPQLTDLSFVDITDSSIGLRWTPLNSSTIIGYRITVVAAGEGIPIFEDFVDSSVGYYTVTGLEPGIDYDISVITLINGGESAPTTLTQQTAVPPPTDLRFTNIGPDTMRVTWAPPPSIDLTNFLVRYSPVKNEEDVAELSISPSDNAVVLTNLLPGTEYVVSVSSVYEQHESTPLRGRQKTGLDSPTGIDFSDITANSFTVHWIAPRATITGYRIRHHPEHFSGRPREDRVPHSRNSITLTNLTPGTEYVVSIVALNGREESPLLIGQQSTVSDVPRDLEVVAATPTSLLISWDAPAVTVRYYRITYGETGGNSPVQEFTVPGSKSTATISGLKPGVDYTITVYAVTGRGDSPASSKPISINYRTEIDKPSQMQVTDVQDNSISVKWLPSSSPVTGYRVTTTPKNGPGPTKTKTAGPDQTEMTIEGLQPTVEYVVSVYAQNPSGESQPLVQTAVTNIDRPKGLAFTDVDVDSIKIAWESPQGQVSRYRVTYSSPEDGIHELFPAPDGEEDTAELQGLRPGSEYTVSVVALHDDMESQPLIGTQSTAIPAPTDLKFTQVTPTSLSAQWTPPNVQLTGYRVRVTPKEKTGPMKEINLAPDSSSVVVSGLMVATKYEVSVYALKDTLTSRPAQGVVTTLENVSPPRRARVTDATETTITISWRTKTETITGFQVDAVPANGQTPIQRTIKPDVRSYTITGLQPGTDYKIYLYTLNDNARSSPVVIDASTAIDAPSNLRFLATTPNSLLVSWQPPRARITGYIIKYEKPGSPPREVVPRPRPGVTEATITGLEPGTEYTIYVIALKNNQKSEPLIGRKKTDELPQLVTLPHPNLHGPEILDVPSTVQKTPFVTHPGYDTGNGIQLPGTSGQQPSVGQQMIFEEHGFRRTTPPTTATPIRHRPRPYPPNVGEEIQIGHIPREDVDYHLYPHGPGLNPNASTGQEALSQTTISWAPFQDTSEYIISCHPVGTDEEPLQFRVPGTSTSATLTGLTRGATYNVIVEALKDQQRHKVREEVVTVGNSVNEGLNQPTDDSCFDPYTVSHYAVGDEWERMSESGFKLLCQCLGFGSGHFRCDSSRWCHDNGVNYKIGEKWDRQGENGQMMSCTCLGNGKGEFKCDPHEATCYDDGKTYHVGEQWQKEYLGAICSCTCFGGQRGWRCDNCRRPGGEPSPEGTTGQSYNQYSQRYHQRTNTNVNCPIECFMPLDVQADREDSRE

Molecule: Fap2 extracellular domain (Fap2-ECD, residues 42-3271) from Fusobacterium nucleatum subsp. nucleatum ATCC23726, wild type (domain or fragment)
- Ka [1]: 1.72e+06 M⁻¹
- Kd [1]: 583 nM
- koff [1]: 0.0308 s⁻¹

Molecule: Nectin-2 (from UniProt Q92692)
- Kd (TIGIT (Homo sapiens)): 6 µM

Molecule: lipoprotein P4 (from UniProt P26093)
- Kd [2]: 10 nM

B1: human TIGIT extracellular domain with C-terminal Fc tag (Acro Biosystems #TIT-H5254) (Fc fusion, UniProt Q495A1 22-141, looked up)
chain: MMTGTIETTGNISAEKGGSIILQCHLSSTTAQVTQVNWEQQDQLLAICNADLGWHISPSFKDRVAPGPGLGLTLQSLTVNDTGEYFCIYHTYPDGTYTGRIFLEVLESSVAEHGARFQIP
notes: TIGIT, human, extracellular domain; The text calls it glycosylated hTIGIT-ECD in the SPR; also called hTIGIT-ECD-Fc; hTIGIT-Fc; source: bought: Acro Biosystems, #TIT-H5254; not shown: Fc, C-terminal, kept
- Kd [3]: ~600 nM
- koff [3]: 0.03 ± 0.001 s⁻¹
